Several values for one entry are separate records, joined by “and”; a condition that tells them apart may be missing. Identical values can stand only once.
Columns and labels:
[1] = molecular target: proline tolerant tripeptidyl peptidase (TRI083); experiment: Product inhibition of TRI083 (Ala-Ala-Ala-pNA substrate); assay type: biochemical, T. reesei; conditions: treated as competitive inhibitors
Procedure: For proline tolerant tripeptidyl peptidase the chromogenic peptide H-Ala-Ala-Ala-pNA was used. The assay was conducted as follows, 27.5 μL of appropriately diluted enzyme was added to 200 μl McIlvaine buffer (20 mM, pH 4.0). After incubation at 50° C. for 5 min, 12.5 μL of the chromogenic peptide solution (5 mg/mL dissolved in dimethyl sulfoxide (DMSO); Sigma-Aldrich, Denmark) were added to the reaction mixture. The reaction was terminated by adding 50 μL of 0.5 M trichloroacetic acid (TCA; Sigma-Aldrich, Denmark). After centrifugation (15,000×g, 5 min), 240 μL of the solution were transferred to a microtiter plate (MTP; Kisker-biotech, Germany) and the absorption was measured in an MTP reader (Molecular Devices, Denmark) at 405 nm. One katal of proteolytic activity was defined as the amount of enzyme required to release 1 mol of p-nitroaniline per second.
Inhibition experiments were conducted with TRI083 and Ala-Ala-Ala-pNA ([…]) as substrate in the assay described in Example 8. The assay was run without inhibitor, with 3.6 mM tripeptide (H-Ala-Ala-Ala-OH; Bachem, Switzerland), 18 mM dipeptide (H-Ala-Ala-OH; Bachem, Switzerland) or 18 mM alanine (Sigma-Aldrich, Denmark). […]
Subsequently, TRI083 was analyzed for product inhibition without inhibitor, with 1 mg/mL H-Ala-Ala-Ala-OH as well with the PepN pre-hydrolyzed H-Ala-Ala-Ala-OH (1 mg/mL).

H-Ala-Ala-Phe-pNA = experiment: Low pH stability of tripeptidyl peptidases (pH 2.5, 40° C., 60 min), activity on H-Ala-Ala-Phe-pNA; assay type: biochemical; conditions: for OD410nm (Final): after pH 2.5, 40° C., 60 min; for OD410nm (Initial): without incubation at 40° C. for 60 min
Procedure: As requirements for utilization of the enzymes in feed for monogastric animals, the enzymes should be active at lower pH. For this reason the number of tripeptidyl peptidases has been tested with the reaction on synthetic substrate AAF (H-Ala-Ala-Phe-pNA. BACHEM, L-1095), at pH 2.5.
The tripeptide substrate AAF was prepared at 2.5 mg/ml in DMSO. Tripeptidyl peptidases were used as broth. The reaction mixture containing 2.5 μl enzyme and 90 μL glycine acetic acid-Tris buffer (each buffer components at 50 mM, pH 2.5) was prepared in 96 well incubation plates.
The incubation plate was mixed and incubated at 40° C. for 60 min. Then 50 μl 0.2M Mes-NaOH pH6.0 was added to each well, mixed at 600 rpm for 2 min. After that, 5 ul of the incubation mixture were taken to 96 well assay plate already filled with 85 μl 0.1M acetic acid buffer, pH4.0 and 5 μl 2.5 mg/ml AAF substrate solution.
The reaction mixture was stirred at 600 rpm for 2 min and read directly in a microplate reader (Molecular Devices, Denmark) at 410 nm at 30° C. every 30 second for 15 min.
To measure initial enzyme activity, similar procedure was performed except the step of enzyme incubation at 40° C. for 60 min.

[2] = tested on: whey protein isolate (WPI); experiment: 15% WPI hydrolysis with endopeptidase and proline tolerant tripeptidyl peptidase homologues; assay type: biochemical; conditions: after 7 h of hydrolysis, compared to the reference (endopeptidase); FIG. 14
Procedure: For WPI hydrolysis, Lacprodan-9224 (Arla Food Ingredients, Denmark) was employed, a 15% (w/w) WPI suspension was prepared in H2Od and adjusted to pH 4.5 with acetic acid (Sigma-Aldrich, Denmark). To prevent microbial growth, 0.0285% (w/w) NaN3 was added. Subsequently, 1% (w/w) Alphalase® FP2 was added and a volume of 200 μl of the WPI suspension was transferred into each of the 96 wells of a microtiter plate (MTP; VWR, Denmark). Following this, 5 μl of each proline tolerant tripeptidyl peptidase homologue containing either 0 or 4375nkatH-Ala-Ala-Ala-pNA/mL were added to the particular wells of the MTP. Then, the MTP was sealed and placed in an incubator at 40° C. (iEMS incubator/shaker HT, Thermo Scientific, Denmark).
[…] Unhydrolyzed, precipitated WPI was removed by filtration (0.22 μm; Corning 3504 filter plate, Corning Incorporated, USA). The filtered WPI hydrolysate was employed for o-phthaldehyde (OPA) derivatization (Nielsen, Petersen et al. 2001). The OPA derivatization was conducted according to Nielsen et al., (2001) with minor modifications. A sample volume of 25 μl was transferred to a well and 175 μl of OPA-reagent, dissolved in trisodium phosphate-dodecahydrate, was added subsequently. The measured absorptions at 340 nm in a MTP reader (VersaMax, Molecular Devices, Denmark) were transformed into serine equivalents employing a serine calibration curve (0-2 mM).

[3] = listed as TRI071 (pool1) 2% glu/soph
[4] = listed as TRI071 (pool1) 4% glu/soph

C[C@H](N)C(=O)O [Alanine, alanine]
Ki [1]: no inhibition at all

B1: TRI071: Proline tolerant tripeptidyl peptidase TRI071 (SEQ ID No. 12 or SEQ ID No. 39) (protein, listed as Fusarium oxysporum)
chain 1: KSFSHHAEAPQGWQVQKTAKVASNTQHVFSLALTMQNVDQLESKLLDLSSPDSANYGNWLSHDELTSTFSPSKEAVASVTKWLKSKGIKHYKVNGAFIDFAADVEKANTLLGGDYQYYTKDGQTKLRTLSYSIPDDVAGHVQFVDPSTNFGGTVAFNPVPHPSRTLQERKVSPSKSTVDASCQTSITPSCLKQMYNIGDYTPDAKSGSEIGFSSFLGQAAIYSDVFKFEELFGIPKQNYTTILINNGTDDQNTAHGNFGEANLDAENIVGIAHPLPFKQYITGGSPPFVPNIDQPTEKDNQNEPYVPFFRYLLGQKDLPAVISTSYGDEEDSVPREYATLTCNMIGLLGLRGISVIFSSGDIGVGSGCLAPDYKTVEFNAIFPATCPYLTSVGGTVDVTPEIAWEGSSGGFSKYFPRPSYQDKAIKKYMKTVSKETKKYYGPYTNWEGRGFPDVAGHSVAPDYEVIYNGKQARSGGTSAAAPVWAAIVGLLNDARFKAGKKSLGWLNPLIYKHGPKVLTDITGGYAIGCDGNNTQSGKPEPAGSGLVPGARWNATAGWDPTTGYGTPNFQKLKDLVLSL
chain 2: CQTSITPSCLKQMYNIGDYTPDAKSGSEIGFSSFLGQAAIYSDVFKFEELFGIPKQNYTTILINNGTDDQNTAHGNFGEANLDAENIVGIAHPLPFKQYITGGSPPFVPNIDQPTEKDNQNEPYVPFFRYLLGQKDLPAVISTSYGDEEDSVPREYATLTCNMIGLLGLRGISVIFSSGDIGVGSGCLAPDYKTVEFNAIFPATCPYLTSVGGTVDVTPEIAWEGSSGGFSKYFPRPSYQDKAIKKYMKTVSKETKKYYGPYTNWEGRGFPDVAGHSVAPDYEVIYNGKQARSGGTSAAAPVWAAIVGLLNDARFKAGKKSLGWLNPLIYKHGPKVLTDITGGYAIGCDGNNTQSGKPEPAGSGLVPGARWNATAGWDPTTGYGTPNFQKLKDLVLS
OD410nm (Final) (H-Ala-Ala-Phe-pNA; [3]): 0.589 and 0.672 | OD410nm (Final) (H-Ala-Ala-Phe-pNA; [4]): 0.453 and 0.6 | OD410nm (Initial) (H-Ala-Ala-Phe-pNA; [3]): 0.757 and 0.815 | OD410nm (Initial) (H-Ala-Ala-Phe-pNA; [4]): 0.466 and 0.67 | relative increase of SE [2]: about 64%
